These results are taken from US12428633B2, “Inducible dimerization of recombinases” (TRUSTEES OF BOSTON UNIVERSITY, priority 2016, dated 2025).

Sequences and labels used below:
B1: VCre 172: VCre (SEQ ID NO: 16) split into aa 1-172 and 173-380, fused to CIDD pair (protein)
chain: MIENQLSLLGDFSGVRPDDVKTAIQAAQKKGINVAENEQFKAAFEHLLNEFKKREERYSPNTLRRLESAWTCFVDWCLANHRHSLPATPDTVEAFFIERAEELHRNTLSVYRWAISRVHRVAGCPDPCLDIYVEDRLKAIARKKVREGEAVKQASPFNEQHLLKLTSLWYRSDKLLLRRNLALLAVAYESMLRASELANIRVSDMELAGDGTAILTIPITKTNHSGEPDTCILSQDVVSLLMDYTEAGKLDMSSDGFLFVGVSKHNTCIKPKKDKQTGEVLHKPITTKTVEGVFYSAWETLDLGRQGVKPFTAHSARVGAAQDLLKKGYNTLQIQQSGRWSSGAMVARYGRAILARDGAMAHSRVKTRSAPMQWGKDEKD
modifications: split at 172/173; CIDD pair fusions lack entries
B2: VCre 82: VCre (SEQ ID NO: 16) split into aa 1-82 and 83-380, fused to CIDD pair (protein)
chain: B1 chain
modifications: split at 82/83; CIDD pair fusions lack entries
B3: VCre 269: VCre (SEQ ID NO: 16) split into aa 1-269 and 270-380, fused to CIDD pair (protein)
chain: B1 chain
modifications: split at 269/270; CIDD pair fusions lack entries
B4: VCre 277: VCre (SEQ ID NO: 16) split into aa 1-277 and 278-380, fused to CIDD pair (protein)
chain: B1 chain
modifications: split at 277/278; CIDD pair fusions lack entries
B5: Flp 396: Flp (SEQ ID NO: 1) split into aa 1-396 and 397-423, fused to CIDD pair (protein)
chain 1: MSQFDILCKTPPKVLVRQFVERFERPSGEKIASCAAELTYLCWMITHNGTAIKRATFMSYNTIISNSLSFDIVNKSLQFKYKTQKATILEASLKKLIPAWEFTIIPYNGQKHQSDITDIVSSLQLQFESSEEADKGNSHSKKMLKALLSEGESIWEITEKILNSFEYTSRFTKTKTLYQFLFLATFINCGRFSDIKNVDPKSFKLVQNKYLGVIIQCLVTETKTSVSRHIYFFSARGRIDPLVYLDEFLRNSEPVLKRVNRTGNSSSNKQEYQLLKDNLVRSYNKALKKNAPYPIFAIKNGPKSHIGRHLMTSFLSMKGLTELTNVVGNWSDKRASAVARTTYTHQITAIPDHYFALVSRYYAYDPISKEMIALKDETNPIEEWQHIEQLKGSAEG
chain 2: SIRYPAWNGIISQEVLDYLSSYINRRI
modifications: fused to CIDD pair
B6: Flp 374: Flp (SEQ ID NO: 1) split into aa 1-374 and 375-423, fused to CIDD pair (protein)
chain 1: MSQFDILCKTPPKVLVRQFVERFERPSGEKIASCAAELTYLCWMITHNGTAIKRATFMSYNTIISNSLSFDIVNKSLQFKYKTQKATILEASLKKLIPAWEFTIIPYNGQKHQSDITDIVSSLQLQFESSEEADKGNSHSKKMLKALLSEGESIWEITEKILNSFEYTSRFTKTKTLYQFLFLATFINCGRFSDIKNVDPKSFKLVQNKYLGVIIQCLVTETKTSVSRHIYFFSARGRIDPLVYLDEFLRNSEPVLKRVNRTGNSSSNKQEYQLLKDNLVRSYNKALKKNAPYPIFAIKNGPKSHIGRHLMTSFLSMKGLTELTNVVGNWSDKRASAVARTTYTHQITAIPDHYFALVSRYYAYDPISKEMIAL
chain 2: KDETNPIEEWQHIEQLKGSAEGSIRYPAWNGIISQEVLDYLSSYINRRI
modifications: fused to CIDD pair
B7: Flp 168: Flp (SEQ ID NO: 1) split into aa 1-168 and 169-423, fused to CIDD pair (protein)
chain 1: MSQFDILCKTPPKVLVRQFVERFERPSGEKIASCAAELTYLCWMITHNGTAIKRATFMSYNTIISNSLSFDIVNKSLQFKYKTQKATILEASLKKLIPAWEFTIIPYNGQKHQSDITDIVSSLQLQFESSEEADKGNSHSKKMLKALLSEGESIWEITEKILNSFEYT
chain 2: SRFTKTKTLYQFLFLATFINCGRFSDIKNVDPKSFKLVQNKYLGVIIQCLVTETKTSVSRHIYFFSARGRIDPLVYLDEFLRNSEPVLKRVNRTGNSSSNKQEYQLLKDNLVRSYNKALKKNAPYPIFAIKNGPKSHIGRHLMTSFLSMKGLTELTNVVGNWSDKRASAVARTTYTHQITAIPDHYFALVSRYYAYDPISKEMIALKDETNPIEEWQHIEQLKGSAEGSIRYPAWNGIISQEVLDYLSSYINRRI
modifications: fused to CIDD pair
B8: Flp 27: Flp (SEQ ID NO: 1) split into aa 1-27 and 28-423, fused to CIDD pair (protein)
chain 1: MSQFDILCKTPPKVLVRQFVERFERPS
chain 2: GEKIASCAAELTYLCWMITHNGTAIKRATFMSYNTIISNSLSFDIVNKSLQFKYKTQKATILEASLKKLIPAWEFTIIPYNGQKHQSDITDIVSSLQLQFESSEEADKGNSHSKKMLKALLSEGESIWEITEKILNSFEYTSRFTKTKTLYQFLFLATFINCGRFSDIKNVDPKSFKLVQNKYLGVIIQCLVTETKTSVSRHIYFFSARGRIDPLVYLDEFLRNSEPVLKRVNRTGNSSSNKQEYQLLKDNLVRSYNKALKKNAPYPIFAIKNGPKSHIGRHLMTSFLSMKGLTELTNVVGNWSDKRASAVARTTYTHQITAIPDHYFALVSRYYAYDPISKEMIALKDETNPIEEWQHIEQLKGSAEGSIRYPAWNGIISQEVLDYLSSYINRRI
modifications: fused to CIDD pair

The first experiment concerns VloxP. The experiment is described as follows: Gibberellin ester (GIB)-induced split-VCre rejoinder, GFP reporter. As to conditions: GAI/GID1 CIDD pair; with vs without GIB. It is filed as cell-based, human. The method, then:
FIGS. 42A-42B show results of gene expression of different split-recombinase Cre (SEQ ID NO: 74) or VCre fragments (SEQ ID NO: 16).
(§1) DNA was transfected into the human embryonic kidney cell line (HEK293FT) using a polyethylenimine (PEI) protocol. Cells were plated onto 48-(2504) or 96-well (1004) plates the day prior to transfection (200,000 cells/mL), such that the cells were 50-70% confluent the day of transfection. Cells were kept in a humidified incubator at 37° C. and 5% CO2 and maintained in DMEM medium (Corning) with 10% Heat Inactivated Fetal Bovine Serum (Life Technologies), 50 U.I./mL penicillin/50 μg/mL streptomycin (Corning), 2 mM glutamine (Corning) and 1 mM sodium pyruvate (Lonza). PEI stocks were made from linear polyethylenimine (Polysciences 23966-2) and were dissolved at a concentration of 0.323 g/L in deionized water with the assistance of concentrated hydrochloric acid and sodium hydroxide and then filtered sterilized (0.24 μm). PEI stocks were stored at −80° C. until use and warmed to room temperature prior to usage. For 48-well plate transfections, DNA (1000 ng, 50 ng/4) was dissolved and brought up to a volume of 50 μL using 0.15 M sodium chloride (NaCl, Fisher Scientific). DNA-NaCl solutions were then mixed with 50 μL of a PEI-NaCl mixture (8 uL PEI: 42 uL NaCl). These solutions were then incubated at room temperature for ten minutes and 25 μL was carefully dropped into individual wells of HEK293FT cells (250 ng DNA/well). Similarly, for 96-well plate transfections, DNA (500 ng, 50 ng/4) was dissolved and brought up to a volume of 25 μL using 0.15 M sodium chloride (NaCl). DNA-NaCl solutions were then mixed with 25 μL of a PEI-NaCl (4 uL PEI: 21 uL NaCl) mixture. These solutions were then incubated at room temperature for ten minutes and 10 μL was carefully dropped into individual wells of HEK293FT cells (100 ng DNA/well). Electronic space-adjustable multichannel pipettors (Integra Biosciences) were utilized throughout the process for rapid aspiration and dispensing of molecular and cellular reagents. A Countess II image-based cell counter (Life Technologies) was used for measuring human cell population densities.
Rapamycin analog (Clontech A/C heterodimerizer AP21967, 0.5 mM) was used as a 1000× stock for chemical induction experiments. […]
(§2) Two days post-transfection and after trypsinization (0.05% Trypsin/0.53 mM EDTA, Corning) and resuspension, all HEK293FT cell populations were analyzed using a Becton Dickinson (BD) LSRFortessa SORP flow cytometer with HTS. […]
As for B1, the “GFP expression of split-VCre by split site (S)” value is listed as “result in GFP expression in the presence of GIB”. The same measure, in the same setting: to B2 belongs “result in GFP expression in the presence of GIB”; to B3, “result in GFP expression in the presence of GIB”. Still for that read-out and setting: to B4 belongs “result in GFP expression in the presence of GIB”.

The next experiment deals with pCAG-FRT-Neo-FRT-GFP reporter. The experiment is described as follows: Gibberellin ester (GIB)-induced split-Flp rejoinder, GFP reporter. The class given is cell-based, human. As to conditions: GAI/GID1 CIDD pair; with vs without GIB. The protocol: Full length FlpO and split Flp vectors were tested for induction of recombinase activity on a pCAG-FRT-Neo-FRT-GFP reporter with and without the presence of gibberellin ester (GIB).
FIGS. 43A-43E show results of gene expression of different split-recombinase Flp (SEQ ID NO: 1) or B3 fragments (SEQ ID NO: 19). […] FIGS. 43B-43E show the GFP expression levels of different amino acid residue of split sites (S) of Flp amino acid sequence (top; shown in blue) and amino acid residue of split sites (S) of B3 amino acid sequence (below, shown in orange).
as §1, with “A Countess II image-based cell counter (Life Technologies) was used for measuring human cell population densities.” left out
as §2
In the case of B5, the “GFP expression of split-Flp by split site (S)” value is “result in GFP expression in the presence of GIB”. Same read-out and setting: to B6 belongs “result in GFP expression in the presence of GIB”. The same measure, in the same setting: to B7 belongs “result in GFP expression in the presence of GIB”. Same read-out and setting: to B8 belongs “result in GFP expression in the presence of GIB”.
